Source: patent publication US8906858B2, “Method for the prophylactic or therapeutic treatment of glucocorticoid-induced osteoporosis” (Fritz-Lipmann-Institut E. V. Leibniz-Institut Fuer …, priority 2010, dated 2014)

Tested on: primary wild type osteoblasts
Experiment: Soluble factors added to osteoblasts during osteogenic induction in presence or absence of Dex
Format: cell-based, mouse
Procedure: FIG. 7. Differential gene regulation in GR^dim osteoblasts and bone organs by GCs and involvement of AP-1 in suppression of IL-11 in osteoblast differentiation. (A-E) Primary osteoblasts were grown until confluence and treated as described in FIG. 4A. qRT-PCR-determined mRNA expression levels of GILZ, Per-1, KLF15, Lif (LIF) and II11 (IL-11) after six hours. (F-H) qRT-PCR-determined mRNA expression level of IL-11 in organ cultures of GR mutant fetal hind legs (F), in dN^Runx2Cre osteoblasts (G) and c-jun^null MEFs (H) after six hours treatment. (I) Chromatin immunoprecipitation of MEFs after six hours. […] IgG precipitation served as negative control and amplification of the input as positive control. […] At day 10, ALP activity was determined and at day 20, Alizarin Red staining was performed. (K) Quantification of ALP-positive cells treated as in (J) after 10 days. (L) qRT-PCR-determined Runx2 mRNA expression level in cells treated as in (J) after 10 days.
FIG. 13. Effects of GR regulated soluble factors on osteoblast cell numbers. […] At day 10 cell counts were determined by automatic microscopy. Data are represented as mean+/−SEM. *<0.05.
FIG. 14. Effects of GR regulated soluble factors on osteoblast cell differentiation. Primary wild type osteoblasts were differentiated with or without Dex. At day 10 the specific ALP activity was determined and is depicted as ALP positive cells in percent in the absence or presence of NGF (A), IL-6 (B), EGF (C) and LIF (D). Data are represented as mean+/−SEM. * p<0.05; ** p<0.01.
Primary osteoblasts were isolated from either embryonic (E18.5) or neonatal calvaria by sequential digestions and cultivated as previously described (David et al., 2005). c-Jun-deficient cells were obtained from previously described mice (Schreiber et al., 1999). […] Differentiation of osteoblasts was determined by staining for ALP activity (ALP kit, Sigma or ELF® Phosphatase Detection Kit, ATCC) or by Alizarin Red staining (Sigma) at indicated time points. Apoptosis was detected by In situ Cell Death Detection Kit (Roche), and proliferation with fluorescent immunohistochemistry using mouse anti-Ki-67 (BD Pharmingen™) and Alexa Fluor® 594-labeled donkey anti-mouse IgG (Molecular Probes™). Quantification of the stainings and cell numbers according to DAPI labeling was performed by automated microscopy using Cellomics ArrayScan and software HCS Scan® (Thermo-Fischer). The factors EGF (Calbiochem), NGF2 (Sigma), IL-6 (ImmunoTools), IL-11 (Antigenix America, Inc.) and LIF (Chemicon) were added to the culture after differentiation at concentrations of 0.8, 4 and 20 ng/ml. qRT-PCR was performed as previously described (Tuckermann et al., 2007). Primer information can be provided upon request.

B1: HB-EGF: heparin binding-epidermal growth factor (protein, UniProt Q99075 63-148, looked up)
Heparin-binding EGF-like …: DLQEADLDLLRVTLSSKPQALATPNKEEHGKRKKKGKGLGKKRDPCLRKYKDFCIHGECKYVKELRAPSCICHPGYHGERCHGLSL
In the case of B1, the “effect on osteoblast differentiation” value is reported as “inhibitory effect”.

B2: IL-11: recombinant Interleukin-11 (protein, UniProt P20809 22-199, looked up)
Interleukin-11: PGPPPGPPRVSPDPRAELDSTVLLTRSLLADTRQLAAQLRDKFPADGDHNLDSLPTLAMSAGALGALQLPGVLTRLRADLLSYLRHVQWLRRAGGSSLKTLEPELGTLQARLDRLLRRLQLLMSRLALPQPPPDPPAPPLAPPSSAWGGIRAAHAILGGLHLTLDWAVRGLLLLKTRL
B2 was tested, and the “rescue of Dex-impaired osteoblast differentiation (ALP positive cells)” value (day 10, with Dex) was “potently antagonized”, the “rescue of Dex-reduced osteoblast cell numbers” value (day 10, with Dex) was “not rescuing” and the “Dex suppression of ALP activity, of Runx2 expression and calcification” value (in the presence of IL-11) was “fully restored”.
